Two molecules from publication PMC8440396 (Nature cell biology, 2021) can be followed below.

Common to all, as to assay: pull-down
One assay concerns the target T1, Flag-TRIM15 (human, UniProt Q9C019 1-465).
T1 sequence: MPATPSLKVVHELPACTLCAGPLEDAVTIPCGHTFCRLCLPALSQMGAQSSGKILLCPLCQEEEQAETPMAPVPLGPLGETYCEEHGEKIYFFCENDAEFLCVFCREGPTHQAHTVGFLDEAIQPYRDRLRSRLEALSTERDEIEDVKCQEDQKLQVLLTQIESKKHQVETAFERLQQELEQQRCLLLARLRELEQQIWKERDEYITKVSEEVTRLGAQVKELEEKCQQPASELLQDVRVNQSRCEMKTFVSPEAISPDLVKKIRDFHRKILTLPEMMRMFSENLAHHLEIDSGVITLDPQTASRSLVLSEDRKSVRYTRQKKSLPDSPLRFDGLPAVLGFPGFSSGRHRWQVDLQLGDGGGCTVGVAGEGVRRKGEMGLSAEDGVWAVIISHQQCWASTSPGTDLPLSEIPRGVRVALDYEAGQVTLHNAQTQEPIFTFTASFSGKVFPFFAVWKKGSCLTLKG

The next assay has as its target T2, Flag-CYLD (human, UniProt Q9NQC7 1-956).
T2 sequence: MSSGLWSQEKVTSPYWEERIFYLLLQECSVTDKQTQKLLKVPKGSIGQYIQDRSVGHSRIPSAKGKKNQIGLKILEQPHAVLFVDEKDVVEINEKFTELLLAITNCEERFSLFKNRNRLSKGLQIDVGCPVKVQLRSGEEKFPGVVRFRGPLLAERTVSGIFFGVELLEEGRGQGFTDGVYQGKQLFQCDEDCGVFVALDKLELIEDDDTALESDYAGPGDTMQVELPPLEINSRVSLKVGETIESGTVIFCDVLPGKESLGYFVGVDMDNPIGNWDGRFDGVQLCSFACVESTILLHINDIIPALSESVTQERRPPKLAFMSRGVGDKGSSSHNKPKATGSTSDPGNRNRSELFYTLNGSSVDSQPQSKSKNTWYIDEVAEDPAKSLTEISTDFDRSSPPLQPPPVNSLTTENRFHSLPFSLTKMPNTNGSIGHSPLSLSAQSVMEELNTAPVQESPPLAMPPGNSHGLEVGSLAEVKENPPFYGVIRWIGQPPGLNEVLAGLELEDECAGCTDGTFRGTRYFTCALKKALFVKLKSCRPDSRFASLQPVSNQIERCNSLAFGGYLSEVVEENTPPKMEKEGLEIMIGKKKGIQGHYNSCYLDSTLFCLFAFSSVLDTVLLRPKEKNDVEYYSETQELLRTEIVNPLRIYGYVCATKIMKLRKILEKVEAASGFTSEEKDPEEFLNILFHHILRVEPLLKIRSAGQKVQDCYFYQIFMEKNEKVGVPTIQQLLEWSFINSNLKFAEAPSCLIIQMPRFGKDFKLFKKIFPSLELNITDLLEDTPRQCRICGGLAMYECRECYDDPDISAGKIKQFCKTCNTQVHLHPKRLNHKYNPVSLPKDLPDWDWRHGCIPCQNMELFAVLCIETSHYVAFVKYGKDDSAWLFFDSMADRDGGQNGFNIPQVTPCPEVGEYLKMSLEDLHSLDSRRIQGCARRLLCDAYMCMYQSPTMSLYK

Assay [1] deals with T3, Flag-CYLD^4A (K767A/K768A/L773A/L775A) (human, UniProt Q9NQC7 1-956, K767A | K768A | L773A | L775A).
T3 sequence: T2 sequence with K767A, K768A, L773A, L775A

In a further assay the target is Flag-ERK1 (human, UniProt P27361 1-379).
The target in a further assay is Flag-ERK1^K302R (human, UniProt P27361 1-379, K302R).

Changes are numbered by the printed parent chain.

B1: GST-ERK1 (enzyme)
chain: MAAAAAQGGGGGEPRRTEGVGPGVPGEVEMVKGQPFDVGPRYTQLQYIGEGAYGMVSSAYDHVRKTRVAIKKISPFEHQTYCQRTLREIQILLRFRHENVIGIRDILRASTLEAMRDVYIVQDLMETDLYKLLKSQQLSNDHICYFLYQILRGLKYIHSANVLHRDLKPSNLLINTTCDLKICDFGLARIADPEHDHTGFLTEYVATRWYRAPEIMLNSKGYTKSIDIWSVGCILAEMLSNRPIFPGKHYLDQLNHILGILGSPSQEDLNCIINMKARNYLQSLPSKTKVAWAKLFPKSDSKALDLLDRMLTFNPNKRITVEEALAHPYLEQYYDPTDEPVAEEPFTFAMELDDLPKERLKELIFQETARFQPGVLEAP
In the case of B1, the binding result (with Flag-TRIM15; with Flag-CYLD; in assay [1]) was “binds” each time.

B2: GST-ELK-1 (aa 307-428) (domain or fragment)
chain: ISQPQKGRKPRDLELPLSPSLLGGPGPERTPGSGSGSGLQAPGPALTPSLLPTHTLTPVLLTPSSLPPSIHFWSTLSPIAPRSPAKLSFQFPSSGSAQVHIPSISVDGLSTPVVLSPGPQKP
For the molecule B2, the binding result in the assay with Flag-ERK1 and with Flag-ERK1^K302R was “binds” each time.
